Kd and fold change of corrected Alexa/GFP emission ratio data for one substance are collected here from patent US20050287518A1.

In assay [1] the target is GFP-Rac1 fusion (EGFP mutant, 6His construct) bound to GTPγS [GFP: P42212]. The experiment in a line: FRET titration in solution: 200 nM GFP-Rac1-GTPγS, varied Alexa-PBD, Alexa/GFP emission ratio fit to Y=A*X/(Kd+X).
For assay [2] the target is unchanged. Briefly: FRET in solution at saturating (1 micromolar) Alexa-PBD, GFP-Rac1 loaded with varied GTPγS.

Consider “Alexa-PBD (PBD, fragment of human PAK1, residues 65-150, with a single cysteine added in the penultimate N-terminal position, C-terminal 6His fusion, labeled with Alexa 546) (from UniProt Q13153 65-150)”, for which, in assay [1], the Kd (in general, the constant that tells how readily two partners part at equilibrium) is 1100 nM. The fold change of corrected Alexa/GFP emission ratio in assay [2] worked out at 4 fold.
